This assay has as its target T1, recombinant human His-tagged p53 protein (residues 1–312) (human, UniProt P04637 1-312).
T1 construct: p53, human, residues 1-312; source: final dialysis with 0.2 mM ZnCl2
In words: NMR antagonist-induced dissociation assay (AIDA), 1D proton spectra; Trp NHε side-chain signals of the MDM2–p53 complex; 0.1 mM proteins, 25 °C, 20 mM Tris-HCl, 150 mM KCl, pH 7.4, 5 mM β-mercaptoethanol, 0.02% NaN3; also after RM37 (0.2 mM). The conditions noted are these: both partners purified.

T1 sequence (P04637 1-312): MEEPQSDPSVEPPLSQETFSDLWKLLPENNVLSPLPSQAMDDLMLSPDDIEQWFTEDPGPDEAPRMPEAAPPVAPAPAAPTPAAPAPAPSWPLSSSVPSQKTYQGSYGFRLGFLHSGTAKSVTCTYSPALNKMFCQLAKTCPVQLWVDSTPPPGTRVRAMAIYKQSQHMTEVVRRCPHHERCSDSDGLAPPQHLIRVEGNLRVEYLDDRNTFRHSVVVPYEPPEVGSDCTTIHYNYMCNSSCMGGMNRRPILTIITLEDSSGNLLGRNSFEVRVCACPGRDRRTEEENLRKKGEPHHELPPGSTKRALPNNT

B1: recombinant human His-tagged N-terminal region of MDM2 (residues 1–118) (domain or fragment, UniProt Q00987 1-118, looked up)
chain: MCNTNMSVPTDGAVTTSQIPASEQETLVRPKPLLLKLLKSVGAQKDTYTMKEVLFYLGQYIMTKRLYDEKQQHIVYCSNDLLGDLFGVPSFSVKEHRKIYTMIYRNLVVVNQQESSDS
notes: MDM2 (HDM2), human, N-terminal region, residues 1-118; Cloned in a derivative of the vector pET-46Ek/LIC (Novagen); that vector probably adds the His tag at the N-terminus (surmised); No cleavage of the tag is told; also called HDM2
With B1, the binding result was “binds”.
